{
  "source": "patent US20250049939A1",
  "about": "“NOVEL FLT3 ANTIBODIES AND ANTIBODY-DRUG-CONJUGATES BASED THEREON, THERAPEUTIC METHODS AND USES THEREOF IN COMBINATION WITH TYROSINE KINASE INHIBITORS” (TUBULIS GmbH, priority 2021, published 2025)",
  "biological_target": "human CD64 (high affinity Fc receptor, FCGR1) on cells (human) (UniProt P12314)",
  "sequence (P12314 16-374)": "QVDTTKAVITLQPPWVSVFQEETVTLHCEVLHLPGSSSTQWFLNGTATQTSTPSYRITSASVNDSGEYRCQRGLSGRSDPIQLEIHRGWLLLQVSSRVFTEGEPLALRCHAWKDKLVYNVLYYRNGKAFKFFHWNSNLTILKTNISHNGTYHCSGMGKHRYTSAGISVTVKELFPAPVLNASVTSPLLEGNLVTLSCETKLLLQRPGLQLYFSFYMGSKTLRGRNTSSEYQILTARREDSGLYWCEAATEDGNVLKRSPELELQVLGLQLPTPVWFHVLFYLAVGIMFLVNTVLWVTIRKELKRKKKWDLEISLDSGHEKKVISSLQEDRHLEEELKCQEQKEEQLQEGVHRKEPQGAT",
  "experiment": "cell-based or functional assay",
  "data": [
    {"substance": "IgG1-ADC (palivizumab conjugated to MMAF) (antibody)", "values": [
      {"measurement": "IC50 of cytotoxicity in Ba/F3-pMIY-CD64 cells", "value": 31.8, "unit": "ng/ml"},
      {"measurement": "IC50 of cytotoxicity in Ba/F3 cells expressing both FLT3 and CD64", "value": 78.3, "unit": "ng/mL"},
      {"measurement": "IC50 of cytotoxicity in CD64 positive leukemia and lymphoma cell lines", "value": "12.8 to 2000", "unit": "ng/mL"}
    ]}
  ]
}
